The assay deals with Fas receptor on primary mouse thyroid follicular cells (TFC) (mouse) (UniProt P25446). Put plainly: cell-based or functional assay.
Sequence of UniProt P25446 (P25446 22-327): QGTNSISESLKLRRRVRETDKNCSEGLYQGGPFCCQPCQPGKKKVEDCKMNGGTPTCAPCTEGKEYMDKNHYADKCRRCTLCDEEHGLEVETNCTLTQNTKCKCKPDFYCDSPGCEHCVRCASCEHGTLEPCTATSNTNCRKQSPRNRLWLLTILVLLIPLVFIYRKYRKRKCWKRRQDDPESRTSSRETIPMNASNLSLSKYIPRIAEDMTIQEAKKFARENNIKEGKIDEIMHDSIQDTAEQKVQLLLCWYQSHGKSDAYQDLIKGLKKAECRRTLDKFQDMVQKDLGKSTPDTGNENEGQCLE

In the case of clone Jo2 anti-Fas antibody, the percentage of proliferation increase of anti-Fas versus control cultures ([3H] thymidine), 48h stood at 37%; the percentage of proliferation increase of anti-Fas versus control cultures ([3H] thymidine), 72h amounted to 49%; the percentage of proliferation increase of anti-Fas versus control cultures ([3H] thymidine), 96h is 61%; the proliferation of anti-Fas treated TFC ([3H] thymidine, mean cpm of six wells) lay within 392 to 1510 cpm.
